According to US20220033454A1 (ANWITA BIOSCIENCES, published 2022):
One block for each molecule: values may come before it.

What was measured:
[1] = biological target: endogenous IL-22 receptor on AsPC-1 cells (UniProt Q8N6P7); test: cell-based or functional assay
[2] = biological target: T1, mIL22RA1-Fc fusion protein (mouse, UniProt Q80XZ4 16-230, limits assumed); test: BLI (Octet RED96); mIL22RA1-Fc captured on AHC biosensor, fusion protein in solution at 400 nM, global fit
T1 construct: also called mouse IL-22Ra 1; IL-22Rα-1; not shown: Fc part
T1 sequence (looked up): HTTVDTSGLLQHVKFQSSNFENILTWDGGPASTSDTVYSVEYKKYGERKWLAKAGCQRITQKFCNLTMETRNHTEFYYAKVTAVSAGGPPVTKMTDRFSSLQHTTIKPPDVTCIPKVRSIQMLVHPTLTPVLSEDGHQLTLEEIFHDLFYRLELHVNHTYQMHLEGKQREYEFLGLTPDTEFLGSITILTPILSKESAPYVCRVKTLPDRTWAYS
Procedure: OCTET® RED96 was used to characterize the interactions of an IL-22 fusion protein with a mouse IL-22Ra 1 (mIL22RA1). Briefly, an mIL22RA1-Fc fusion protein was loaded onto an anti-human IgG Fc capture (AHC) biosensor. The biosensor was then dipped into a solution containing the IL-22 fusion protein at 400 nM. Primary experimental data was analyzed with global fitting to determine a dissociation constant (Kd).

[3] = biological target: T2, endogenous IL-22 receptor on AsPC-1 cells (UniProt Q8N6P7 16-574, limits assumed); test: cell-based or functional assay
T2 sequence (looked up): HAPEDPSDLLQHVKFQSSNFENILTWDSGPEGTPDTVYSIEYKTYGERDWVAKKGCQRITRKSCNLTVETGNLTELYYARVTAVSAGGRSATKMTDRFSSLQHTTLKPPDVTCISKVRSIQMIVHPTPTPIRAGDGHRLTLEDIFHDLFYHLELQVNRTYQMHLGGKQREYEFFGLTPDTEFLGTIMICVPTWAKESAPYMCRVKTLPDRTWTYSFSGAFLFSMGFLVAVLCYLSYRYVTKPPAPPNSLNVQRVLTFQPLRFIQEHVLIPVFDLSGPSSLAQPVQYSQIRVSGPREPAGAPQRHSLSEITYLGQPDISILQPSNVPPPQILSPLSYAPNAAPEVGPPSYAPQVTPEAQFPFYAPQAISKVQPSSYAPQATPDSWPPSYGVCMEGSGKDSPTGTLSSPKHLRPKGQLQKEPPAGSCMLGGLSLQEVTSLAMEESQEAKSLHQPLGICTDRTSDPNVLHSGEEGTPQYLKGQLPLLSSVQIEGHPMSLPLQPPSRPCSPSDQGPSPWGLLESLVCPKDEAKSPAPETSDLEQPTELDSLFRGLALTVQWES

Molecule: recombinant human IL-22 (from UniProt Q9GZX6 34-179) (ligand)
- EC50 of STAT3 phosphorylation (phospho-STAT3 Tyr705 HTRF) in AsPC-1 cells [1]: 90 nM

B2: hIL-22-anti-HSA A1 (other)
chain: APISSHCRLDKSNFQQPYITNRTFMLAKEASLADNNTDVRLIGEKLFHGVSMSERCYLMKQVLNFTLEEVLFPQSDRFQPYMQEVVPFLARLSNRLSTCHIEGDDLHIQRNVQKLKDTVKKLGESGEIKAIGELDLLFMSLRNACISGGGGSGGGGSGGGGSEVQLVESGGGLVQPGGSLRLSCAASGSTWSINTLAWYRQAPGKQRDLVARISSGGSTYYADSVKGRFTISRDNSKNTLYLQMNSLRAEDTAVYYCYAQSTWYPPSWGQGTLVTVSS
notes: Single-chain fusion of IL-22 and an anti-HSA VHH, expressed in ExpiCHO cells; also called fusion protein A1
- EC50 of STAT3 phosphorylation (phospho-STAT3 Tyr705 HTRF) in AsPC-1 cells [3]: 800 nM
- Kd [2]: 300 nM

B6: mIL-22-anti-HSA A2 (other)
chain: LPVNTRCKLEVSNFQQPYIVNRTFMLAKEASLADNNTDVRLIGEKLFRGVSAKDQCYLMKQVLNFTLEDVLLPQSDRFQPYMQEVVPFLTKLSNQLSSCHISGDDQNIQKNVRRLKETVKKLGESGEIKAIGELDLLFMSLRNACVSGGGGSGGGGSGGGGSEVQLVESGGGLVQPGGSLRLSCAASGSTWSINTLAWYRQAPGKQRDLVARISSGGSTYYADSVKGRFTISRDNSKNTLYLQMNSLRAEDTAVYYCYAQSTWYPPSWGQGTLVTVSS
notes: Single-chain fusion, expressed in ExpiCHO cells; also called fusion protein A2
- EC50 of STAT3 phosphorylation (phospho-STAT3 Tyr705 HTRF) in AsPC-1 cells [3]: 700 nM
- Kd [2]: 61 nM

B7: mIL-22-anti-HSA A4 (other)
chain: LPVNTRCKLEVSNFQQPYIVNRTFMLAKEASLADNNTDVRLIGEKLFRGVSAKDQCYLMKQVLNFTLEDVLLPQSDRFQPYMQEVVPFLTKLSNQLSSCHISGDDQNIQKNVRRLKETVKKLGESGEIKAIGELDLLFMSLRNACVSGGGGSGGGGSGGGGSQVQLVESGGGVVQPGGSLRLSCAASGFAFRGFGMSWVRQAPGKGLEWVSSINNGGSDTYYADSVKGRFTISRDNSKNTLYLQMNSLRAEDTAVYYCAIGGPGASPSGQGTQVTVSS
notes: Single-chain fusion, expressed in ExpiCHO cells
- EC50 of STAT3 phosphorylation (phospho-STAT3 Tyr705 HTRF) in AsPC-1 cells [3]: 600 nM
- Kd [2]: 67 nM

More lines, in order of falling Kd [2], values ahead:

- EC50 of STAT3 phosphorylation (phospho-STAT3 Tyr705 HTRF) in AsPC-1 cells [3]: 500 nM
- Kd [2]: 30 nM
B5: Anti-HSA-mIL-22 A3 (other)
chain: QVQLVESGGGVVQPGGSLRLSCAASGFAFRGFGMSWVRQAPGKGLEWVSSINNGGSDTYYADSVKGRFTISRDNSKNTLYLQMNSLRAEDTAVYYCAIGGPGASPSGQGTQVTVSSGGGSGGGSGGGSGGGSLPVNTRCKLEVSNFQQPYIVNRTFMLAKEASLADNNTDVRLIGEKLFRGVSAKDQCYLMKQVLNFTLEDVLLPQSDRFQPYMQEVVPFLTKLSNQLSSCHISGDDQNIQKNVRRLKETVKKLGESGEIKAIGELDLLFMSLRNACV
notes: as for B7

- Kd [2]: 1.4 nM
B1: mIL-22-hIgG1 Fc B1 (Fc fusion)
chain: LPVNTRCKLEVSNFQQPYIVNRTFMLAKEASLADNNTDVRLIGEKLFRGVSAKDQCYLMKQVLNFTLEDVLLPQSDRFQPYMQEVVPFLTKLSNQLSSCHISGDDQNIQKNVRRLKETVKKLGESGEIKAIGELDLLFMSLRNACVARGPTIKPCPPCKCPAPNLLGGPSVFIFPPKIKDVLMISLSPIVTCVVVDVSEDDPDVQISWFVNNVEVHTAQTQTHREDYNSTLRVVSALPIQHQDWMSGKEFKCKVNNKDLPAPIERTISKPKGSVRAPQVYVLPPPEEEMTKKQVTLTCMVTDFMPEDIYVEWTNNGKTELNYKNTEPVLDSDGSYFMYSKLRVEKKNWVERNSYSCSVVHEGLHNHHTTKSFSRTPGK

- EC50 of STAT3 phosphorylation (phospho-STAT3 Tyr705 HTRF) in AsPC-1 cells [3]: 500 nM
- Kd [2]: 1.2 nM
B4: mIL-22-anti-HSA-mIL-22 A8 (other)
chain: LPVNTRCKLEVSNFQQPYIVNRTFMLAKEASLADNNTDVRLIGEKLFRGVSAKDQCYLMKQVLNFTLEDVLLPQSDRFQPYMQEVVPFLTKLSNQLSSCHISGDDQNIQKNVRRLKETVKKLGESGEIKAIGELDLLFMSLRNACVSGGGGSGGGGSGGGGSEVQLVESGGGLVQPGGSLRLSCAASGSTWSINTLAWYRQAPGKQRDLVARISSGGSTYYADSVKGRFTISRDNSKNTLYLQMNSLRAEDTAVYYCYAQSTWYPPSWGQGTLVTVSSGGGSGGGSGGGSGGGSLPVNTRCKLEVSNFQQPYIVNRTFMLAKEASLADNNTDVRLIGEKLFRGVSAKDQCYLMKQVLNFTLEDVLLPQSDRFQPYMQEVVPFLTKLSNQLSSCHISGDDQNIQKNVRRLKETVKKLGESGEIKAIGELDLLFMSLRNACV
notes: Single-chain fusion with two IL-22 domains, expressed in ExpiCHO cells; also called fusion protein A8

- EC50 of STAT3 phosphorylation (phospho-STAT3 Tyr705 HTRF) in AsPC-1 cells [3]: 500 nM
- Kd [2]: 0.77 nM
B3: mIL-22-anti-HSA-mIL-22 A9 (other)
chain: LPVNTRCKLEVSNFQQPYIVNRTFMLAKEASLADNNTDVRLIGEKLFRGVSAKDQCYLMKQVLNFTLEDVLLPQSDRFQPYMQEVVPFLTKLSNQLSSCHISGDDQNIQKNVRRLKETVKKLGESGEIKAIGELDLLFMSLRNACVSGGGGSGGGGSGGGGSQVQLVESGGGVVQPGGSLRLSCAASGFAFRGFGMSWVRQAPGKGLEWVSSINNGGSDTYYADSVKGRFTISRDNSKNTLYLQMNSLRAEDTAVYYCAIGGPGASPSGQGTQVTVSSGGGSGGGSGGGSGGGSLPVNTRCKLEVSNFQQPYIVNRTFMLAKEASLADNNTDVRLIGEKLFRGVSAKDQCYLMKQVLNFTLEDVLLPQSDRFQPYMQEVVPFLTKLSNQLSSCHISGDDQNIQKNVRRLKETVKKLGESGEIKAIGELDLLFMSLRNACV
notes: Single-chain fusion with two IL-22 domains, expressed in ExpiCHO cells
